Laboratory results published in US20220339270A1 (published 2022).

What was measured:
Phospho_Tau441_S199A = target: T1, Phospho_Tau441_S199A (human, UniProt P10636 2-758, phosphorylated in vitro by DYRK1A; sites not determined); assay: ELISA, PT3 immobilized, tau protein applied at 333 ng/mL
T1 construct: not shown: his tag added

Phospho_Tau441_T205A = target: T2, Phospho_Tau441_T205A (human, UniProt P10636 2-758, phosphorylated in vitro by DYRK1A; sites not determined); assay: as above
T2 construct: not shown: his tag added

Tau441_S199A = target: T3, Tau441_S199A (human, UniProt P10636 2-758); assay: as above
T3 construct: not phosphorylated; not shown: his tag added

Tau441_T181A = target: T4, Tau441_T181A (human, UniProt P10636 2-758); assay: as above
T4 construct: not phosphorylated; not shown: his tag added

Tau441_T205A = target: T5, Tau441_T205A (human, UniProt P10636 2-758); assay: as above
T5 construct: not phosphorylated; not shown: his tag added

Tau441_S396A = target: T6, Tau441_S396A (human, UniProt P10636 2-758); assay: as above
T6 construct: not phosphorylated; not shown: his tag added
T6 sequence (P10636 other isoform, or with tags, fused parts or gaps S396A S396A): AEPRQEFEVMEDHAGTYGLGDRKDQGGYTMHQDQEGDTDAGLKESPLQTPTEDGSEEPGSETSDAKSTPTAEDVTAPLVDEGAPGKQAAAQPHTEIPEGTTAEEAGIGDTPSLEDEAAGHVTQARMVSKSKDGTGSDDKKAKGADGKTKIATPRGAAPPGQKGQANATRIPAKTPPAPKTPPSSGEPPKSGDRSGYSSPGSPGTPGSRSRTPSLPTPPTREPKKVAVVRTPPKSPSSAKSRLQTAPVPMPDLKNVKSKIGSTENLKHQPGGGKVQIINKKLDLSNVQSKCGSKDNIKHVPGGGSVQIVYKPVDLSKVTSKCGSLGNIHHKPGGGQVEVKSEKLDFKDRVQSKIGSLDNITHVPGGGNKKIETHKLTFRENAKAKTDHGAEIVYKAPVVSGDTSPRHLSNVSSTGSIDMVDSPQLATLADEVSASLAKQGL

Phospho_Tau441_T202A = target: T7, Phospho_Tau441_T202A (human, UniProt P10636 2-758, phosphorylated in vitro by DYRK1A; sites not determined); assay: as above
T7 construct: the list of mutated sites gives S202; also called S202 mutant; not shown: his tag added
T7 sequence (P10636 other isoform, or with tags, fused parts or gaps T202A T202A): as the sequence (P10636 other isoform, or with tags, fused parts or gaps S396A S396A) above, with S201A, A395S counted along it

Tau441_T212A = target: T8, Tau441_T212A (human, UniProt P10636 2-758); assay: as above
T8 construct: not phosphorylated; not shown: his tag added

Phospho_Tau441_S400A = target: T9, Phospho_Tau441_S400A (human, UniProt P10636 2-758, phosphorylated in vitro by DYRK1A; sites not determined); assay: as above
T9 construct: not shown: his tag added

Phospho_Tau441_T212A = target: T10, Phospho_Tau441_T212A (human, UniProt P10636 2-758, phosphorylated in vitro by DYRK1A; sites not determined); assay: as above
T10 construct: not shown: his tag added

Tau441_T231A = target: T11, Tau441_T231A (human, UniProt P10636 2-758); assay: as above
T11 construct: not phosphorylated; not shown: his tag added
T11 sequence (P10636 other isoform, or with tags, fused parts or gaps T231A T231A): as the sequence (P10636 other isoform, or with tags, fused parts or gaps S396A S396A) above, with T230A, A395S counted along it

Phospho_Tau441_T181A = target: T12, Phospho_Tau441_T181A (human, UniProt P10636 2-758, phosphorylated in vitro by DYRK1A; sites not determined); assay: as above
T12 construct: not shown: his tag added

Tau441_T202A = target: T13, Tau441_T202A (human, UniProt P10636 2-758); assay: as above
T13 construct: not phosphorylated; printed T202A, the text gives S202; also called S202 mutant; not shown: his tag added
T13 sequence (P10636 other isoform, or with tags, fused parts or gaps T202A T202A): as the sequence (P10636 other isoform, or with tags, fused parts or gaps S396A S396A) above, with S201A, A395S counted along it

Phospho_Tau441_S422A = target: T14, Phospho_Tau441_S422A (human, UniProt P10636 2-758, phosphorylated in vitro by DYRK1A; sites not determined); assay: as above
T14 construct: not shown: his tag added
T14 sequence (P10636 other isoform, or with tags, fused parts or gaps S422A S422A): as the sequence (P10636 other isoform, or with tags, fused parts or gaps S396A S396A) above, with A395S, S421A counted along it

Tau441_S400A = target: T15, Tau441_S400A (human, UniProt P10636 2-758); assay: as above
T15 construct: not phosphorylated; not shown: his tag added

Phospho_Tau441_T231A = target: T16, Phospho_Tau441_T231A (human, UniProt P10636 2-758, phosphorylated in vitro by DYRK1A; sites not determined); assay: as above
T16 construct: not shown: his tag added
T16 sequence (P10636 other isoform, or with tags, fused parts or gaps T231A T231A): as the sequence (P10636 other isoform, or with tags, fused parts or gaps S396A S396A) above, with T230A, A395S counted along it

Tau441_T217A = target: T17, Tau441_T217A (human, UniProt P10636 2-758); assay: as above
T17 construct: not phosphorylated; not shown: his tag added
T17 sequence (P10636 other isoform, or with tags, fused parts or gaps T217A T217A): as the sequence (P10636 other isoform, or with tags, fused parts or gaps S396A S396A) above, with T216A, A395S counted along it

Phospho_Tau441_S404A = target: T18, Phospho_Tau441_S404A (human, UniProt P10636 2-758, phosphorylated in vitro by DYRK1A; sites not determined); assay: as above
T18 construct: not shown: his tag added

Phospho_Tau441_S396A = target: T19, Phospho_Tau441_S396A (human, UniProt P10636 2-758, phosphorylated in vitro by DYRK1A; sites not determined); assay: as above
T19 construct: not shown: his tag added
T19 sequence (P10636 other isoform, or with tags, fused parts or gaps S396A S396A): as the sequence (P10636 other isoform, or with tags, fused parts or gaps S396A S396A) above

Phospho_Tau441_T217A = target: T20, Phospho_Tau441_T217A (human, UniProt P10636 2-758, phosphorylated in vitro by DYRK1A; sites not determined); assay: as above
T20 construct: not shown: his tag added
T20 sequence (P10636 other isoform, or with tags, fused parts or gaps T217A T217A): as the sequence (P10636 other isoform, or with tags, fused parts or gaps S396A S396A) above, with T216A, A395S counted along it

Tau441_S404A = target: T21, Tau441_S404A (human, UniProt P10636 2-758); assay: as above
T21 construct: not phosphorylated; not shown: his tag added

[1] = target: T22, Tau441-T212A + T231A, phosphorylated in vitro by DYRK1A (human, UniProt P10636 1-758, phosphorylated in vitro by DYRK1A; occupied sites not determined individually); assay: PT3 ELISA, 210 ng/mL DYRK1A-phosphorylated tau variant
T22 construct: His-tagged

[2] = target: T23, Wild-type Tau441, phosphorylated in vitro by DYRK1A (human, UniProt P10636 1-758); assay: as above
T23 construct: Recombinant protein detected with an anti-his antibody; also called phospho-tau

[3] = target: T24, Tau441-T212A + T217A, phosphorylated in vitro by DYRK1A (human, UniProt P10636 1-758, phosphorylated in vitro by DYRK1A; occupied sites not determined individually); assay: as above
T24 construct: His-tagged

[4] = target: T25, Tau441-T212A + S214A, phosphorylated in vitro by DYRK1A (human, UniProt P10636 1-758, phosphorylated in vitro by DYRK1A; occupied sites not determined individually); assay: as above
T25 construct: His-tagged

[5] = target: T26, Tau441-T212A + T217A + T231A, phosphorylated in vitro by DYRK1A (human, UniProt P10636 1-758, phosphorylated in vitro by DYRK1A; occupied sites not determined individually); assay: as above
T26 construct: His-tagged
T26 sequence (P10636 other isoform, or with tags, fused parts or gaps T212A T217A T231A T212A T217A T231A limits assumed): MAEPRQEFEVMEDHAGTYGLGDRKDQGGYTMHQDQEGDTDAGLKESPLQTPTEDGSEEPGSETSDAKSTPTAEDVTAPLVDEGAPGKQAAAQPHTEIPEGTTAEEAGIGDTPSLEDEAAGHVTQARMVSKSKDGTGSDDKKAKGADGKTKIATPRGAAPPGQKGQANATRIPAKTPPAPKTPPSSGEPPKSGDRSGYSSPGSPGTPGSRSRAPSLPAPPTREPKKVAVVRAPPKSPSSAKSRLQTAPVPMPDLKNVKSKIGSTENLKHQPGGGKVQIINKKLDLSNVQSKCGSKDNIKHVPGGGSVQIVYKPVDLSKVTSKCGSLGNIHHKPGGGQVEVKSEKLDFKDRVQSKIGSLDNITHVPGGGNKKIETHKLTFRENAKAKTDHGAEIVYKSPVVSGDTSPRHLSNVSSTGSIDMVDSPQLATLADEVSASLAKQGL

[6] = target: T27, Tau441-T217A + T231A, phosphorylated in vitro by DYRK1A (human, UniProt P10636 1-758, phosphorylated in vitro by DYRK1A; occupied sites not determined individually); assay: as above
T27 construct: His-tagged

[7] = target: T28, wild-type tau (441 amino acids; tau441; NP_005901.2) (human, UniProt P10636 1-758); assay: wild-type tau ELISA, ExpiCHO supernatant
T28 construct: Unphosphorylated recombinant tau441 used in the wild-type tau ELISA; also called wt tau441; wtTau
T28 sequence (P10636 other isoform, or with tags, fused parts or gaps limits assumed): as the sequence (P10636 other isoform, or with tags, fused parts or gaps T212A T217A T231A T212A T217A T231A limits assumed) above, with A212T, A217T, A231T counted along it

[8] = target: T28, wild-type tau (441 amino acids; tau441; …); assay: wtTau ELISA

B1: anti-tau antibody PT3 (antibody, V domains shown)
VH: EVKLVESGGDLVKPGGSLKLSCAASGFTFSSYAMSWVRQNPEKRLEWVASISKGGNTYYPNSVKGRFTISRDNARNILYLQMSSLRSEDTALYYCARGWGDYGWFAYWGQVTLVTVSA
VL: DIKMTQSPSSMYASLGERVTITCKASQDINRYLNWFQQKPGKSPKTLIYRANRLLDGVPSRFSGSGSGQDYSLTISSLDYEDMGIYYCLQYDEFPLTFGDGTKLELK
OD450-570 (Phospho_Tau441_S199A): 0.7
OD450-570 (Phospho_Tau441_T205A): 0.4
OD450-570 (Tau441_S199A): 0
OD450-570 (Tau441_T181A): 0
OD450-570 (Tau441_T205A): 0
OD450-570 (Tau441_S396A): 0
OD450-570 (Phospho_Tau441_T202A): 0.6
OD450-570 (Tau441_T212A): 0
OD450-570 (Phospho_Tau441_S400A): 0.3
OD450-570 (Phospho_Tau441_T212A): 0
OD450-570 (Tau441_T231A): 0
OD450-570 (Phospho_Tau441_T181A): 0.4
OD450-570 (Tau441_T202A): 0
OD450-570 (Phospho_Tau441_S422A): 0.3
OD450-570 (Tau441_S400A): 0
OD450-570 (Phospho_Tau441_T231A): 0.3
OD450-570 (Tau441_T217A): 0
OD450-570 (Phospho_Tau441_S404A): 0.6
OD450-570 (Phospho_Tau441_S396A): 0.5
OD450-570 (Phospho_Tau441_T217A): 0
OD450-570 (Tau441_S404A): 0

B2: anti-tau antibody PT3 (antibody, V domains shown)
VH: EVKLVESGGDLVKPGGSLKLSCAASGFTFSSYAMSWVRQNPEKRLEWVASISKGGNTYYPNSVKGRFTISRDNARNILYLQMSSLRSEDTALYYCARGWGDYGWFAYWGQVTLVTVSA
VL: DIKMTQSPSSMYASLGERVTITCKASQDINRYLNWFQQKPGKSPKTLIYRANRLLDGVPSRFSGSGSGQDYSLTISSLDYEDMGIYYCLQYDEFPLTFGDGTKLELK
OD450-570 [1]: 0.1 OD
OD450-570 [2]: 1.7 OD
OD450-570 [3]: 0 OD
OD450-570 [4]: 0.1 OD
OD450-570 [5]: 0 OD
OD450-570 [6]: 0.1 OD

B3: IPN002 antibody expressed from CB6-IPN002-LT2AH (TAU_ITR87) (antibody, V domains shown)
VH: EVHLVESGGALVKPGGSLKLSCAASGFSFSKYGMSWVRQTPDKRLEWVATISSSGSRTYYPDSVKGQFTISRDNAKNTLYLQMSSLKSEDTAMYYCSISWDGAMDYWGQGTSVTVSS
VL: DVLMTQTPLSLPVSLGDQASISCKSSQSIVHSNGNTYLEWYLQKPGQSPKLLVYKVSNRFSGVPDRFSGSGSGTDFTLKISRVEAEDLGTYYCFQGSLVPWAFGGGTKLEIK
notes: Full antibody
binding result [7]: binds

B4: IPN002 Fab expressed from TAU_ITR123 (CBA, hGbin, HF.T2AL) (Fab, V domains shown)
VH: EVHLVESGGALVKPGGSLKLSCAASGFSFSKYGMSWVRQTPDKRLEWVATISSSGSRTYYPDSVKGQFTISRDNAKNTLYLQMSSLKSEDTAMYYCSISWDGAMDYWGQGTSVTVSS
VL: DVLMTQTPLSLPVSLGDQASISCKSSQSIVHSNGNTYLEWYLQKPGQSPKLLVYKVSNRFSGVPDRFSGSGSGTDFTLKISRVEAEDLGTYYCFQGSLVPWAFGGGTKLEIK
binding result [8]: binds

B5: IPN002 Fab_ext expressed from TAU_ITR124 (CBA, hGbin, HF.T2AL) (Fab, V domains shown)
VH: EVHLVESGGALVKPGGSLKLSCAASGFSFSKYGMSWVRQTPDKRLEWVATISSSGSRTYYPDSVKGQFTISRDNAKNTLYLQMSSLKSEDTAMYYCSISWDGAMDYWGQGTSVTVSS
VL: DVLMTQTPLSLPVSLGDQASISCKSSQSIVHSNGNTYLEWYLQKPGQSPKLLVYKVSNRFSGVPDRFSGSGSGTDFTLKISRVEAEDLGTYYCFQGSLVPWAFGGGTKLEIK
binding result [8]: binds

B6: IPN002 Fab expressed from TAU_ITR127 (CAG, HF.T2AL) (Fab, V domains shown)
VH: EVHLVESGGALVKPGGSLKLSCAASGFSFSKYGMSWVRQTPDKRLEWVATISSSGSRTYYPDSVKGQFTISRDNAKNTLYLQMSSLKSEDTAMYYCSISWDGAMDYWGQGTSVTVSS
VL: DVLMTQTPLSLPVSLGDQASISCKSSQSIVHSNGNTYLEWYLQKPGQSPKLLVYKVSNRFSGVPDRFSGSGSGTDFTLKISRVEAEDLGTYYCFQGSLVPWAFGGGTKLEIK
binding result [8]: binds

B7: IPN002 Fab_ext expressed from TAU_ITR128 (CAG, HF.T2AL) (Fab, V domains shown)
VH: EVHLVESGGALVKPGGSLKLSCAASGFSFSKYGMSWVRQTPDKRLEWVATISSSGSRTYYPDSVKGQFTISRDNAKNTLYLQMSSLKSEDTAMYYCSISWDGAMDYWGQGTSVTVSS
VL: DVLMTQTPLSLPVSLGDQASISCKSSQSIVHSNGNTYLEWYLQKPGQSPKLLVYKVSNRFSGVPDRFSGSGSGTDFTLKISRVEAEDLGTYYCFQGSLVPWAFGGGTKLEIK
binding result [8]: binds

B8: IPN002 Fab_ext expressed from TAU_ITR129 (CBA, hGbin, LT2AH) (Fab, V domains shown)
VH: EVHLVESGGALVKPGGSLKLSCAASGFSFSKYGMSWVRQTPDKRLEWVATISSSGSRTYYPDSVKGQFTISRDNAKNTLYLQMSSLKSEDTAMYYCSISWDGAMDYWGQGTSVTVSS
VL: DVLMTQTPLSLPVSLGDQASISCKSSQSIVHSNGNTYLEWYLQKPGQSPKLLVYKVSNRFSGVPDRFSGSGSGTDFTLKISRVEAEDLGTYYCFQGSLVPWAFGGGTKLEIK
notes: Extended Fab
binding result [8]: binds

B9: IPN002 Fab_ext expressed from TAU_ITR130 (CAG, LT2AH) (Fab, V domains shown)
VH: EVHLVESGGALVKPGGSLKLSCAASGFSFSKYGMSWVRQTPDKRLEWVATISSSGSRTYYPDSVKGQFTISRDNAKNTLYLQMSSLKSEDTAMYYCSISWDGAMDYWGQGTSVTVSS
VL: DVLMTQTPLSLPVSLGDQASISCKSSQSIVHSNGNTYLEWYLQKPGQSPKLLVYKVSNRFSGVPDRFSGSGSGTDFTLKISRVEAEDLGTYYCFQGSLVPWAFGGGTKLEIK
notes: Extended Fab
binding result [8]: binds
